Data as given in the supplement of paper PMC10567573.

B1: EPB41L3 (parent)
chain: GSKFRYSGRTQAQTRRASALIDRP

Variants of: B1
Assay: protein stability index of a GFP-peptide fusion (GPS, HEK-293T) (PSI 1-6); higher = more stable
Details: c terminus: a fixed tail appended
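Further: lentivirally expressed fusions sorted by FACS into six bins by GFP to DsRed ratio, PSI derived from sequencing read proportions per bin multiplied by bin number.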

Going from GSKFRYSGRTQAQTARASALIDRP [R15A] to GSKFRYSGRTQAQTGRASALIDRP [R15G], the protein stability index falls from 3.25 to 2.81.

Compared with GSKFRYSGRTQAQTFRASALIDRP [R15F], GSKFRYSGRTQAQTERASALIDRP [R15E] is higher in protein stability index: 2.44 for the first, 3.57 for the second.

Compared with GSKFRYSGRTQAQTKRASALIDRP [R15K], GSKFRYSGRTQAQTHRASALIDRP [R15H] is higher in protein stability index: 2.83 for the first, 2.97 for the second.

First: GSKFRYSGRTQAQTDRASALIDRP [R15D]
Second: GSKFRYSGRTQAQTMRASALIDRP [R15M]
The protein stability index of the first is lower: 3.2 for the first, 3.21 for the second.

Compared with GSKFRYSGRTQAQTLRASALIDRP [R15L], GSKFRYSGRTQAQTNRASALIDRP [R15N] is higher in protein stability index: 2.64 for the first, 3.68 for the second.

First: GSKFRYSGRTQAQTCRASALIDRP [R15C]
Second: GSKFRYSGRTQAQTIRASALIDRP [R15I]
The protein stability index of the first is lower: 2.06 for the first, 2.66 for the second.

Compared with GSKFRYSGRTQAQTPRASALIDRP [R15P], GSKFRYSGRTPAQTRRASALIDRP [Q11P] is higher in protein stability index: 3.3 for the first, 3.46 for the second.

Compared with GSKFRYSGRTKAQTRRASALIDRP [Q11K], GSKFRYSGRTHAQTRRASALIDRP [Q11H] is lower in protein stability index: 3.11 for the first, 2.85 for the second.

Going from GSKFRYSGRTTAQTRRASALIDRP [Q11T] to GSKFRYSGRTCAQTRRASALIDRP [Q11C], the protein stability index rises from 2.57 to 2.6.

Going from GSKFRYSGRTIAQTRRASALIDRP [Q11I] to GSKFRYSGRTGAQTRRASALIDRP [Q11G], the protein stability index rises from 2.95 to 3.16.

First: GSKFRYSGRTFAQTRRASALIDRP [Q11F]
Second: GSKFRYSGRTRAQTRRASALIDRP [Q11R]
The protein stability index of the first is lower: 2.45 for the first, 3.78 for the second.

First: GSKFRYSGRTSAQTRRASALIDRP [Q11S]
Second: GSKFRYSGRTNAQTRRASALIDRP [Q11N]
The protein stability index of the first is lower: 2.18 for the first, 3 for the second.

Compared with GSKFRYSGRTEAQTRRASALIDRP [Q11E], GSKFRYSGRTVAQTRRASALIDRP [Q11V] is lower in protein stability index: 3.29 for the first, 2.78 for the second.

Compared with GSKFRYSGRTLAQTRRASALIDRP [Q11L], GSKFRYSGRTYAQTRRASALIDRP [Q11Y] is higher in protein stability index: 2.5 for the first, 2.64 for the second.

First: GSKFRYSGRTWAQTRRASALIDRP [Q11W]
Second: GSKFRYSGRTMAQTRRASALIDRP [Q11M]
The protein stability index of the first is lower: 1.75 for the first, 1.94 for the second.

Going from GSKFRYSGRTAAQTRRASALIDRP [Q11A] to GSKFRYSGRTDAQTRRASALIDRP [Q11D], the protein stability index rises from 2.86 to 3.09.

Going from GSKFRYSGRTQAQSRRASALIDRP [T14S] to GSKFRYSGRTQAQDRRASALIDRP [T14D], the protein stability index rises from 2.67 to 3.41.

First: GSKFRYSGRTQAQVRRASALIDRP [T14V]
Second: GSKFRYSGRTQAQKRRASALIDRP [T14K]
The protein stability index of the first is lower: 3.19 for the first, 3.44 for the second.

Compared with GSKFRYSGRTQAQLRRASALIDRP [T14L], GSKFRYSGRTQAQMRRASALIDRP [T14M] is lower in protein stability index: 2.7 for the first, 2.29 for the second.

First: GSKFRYSGRTQAQCRRASALIDRP [T14C]
Second: GSKFRYSGRTQAQYRRASALIDRP [T14Y]
The protein stability index of the first is lower: 1.88 for the first, 2.73 for the second.

First: GSKFRYSGRTQAQQRRASALIDRP [T14Q]
Second: GSKFRYSGRTQAQWRRASALIDRP [T14W]
The protein stability index of the first is higher: 2.81 for the first, 2.22 for the second.

First: GSKFRYSGRTQAQERRASALIDRP [T14E]
Second: GSKFRYSGRTQAQGRRASALIDRP [T14G]
The protein stability index of the first is higher: 3.21 for the first, 3.17 for the second.

First: GSKFRYSGRTQAQIRRASALIDRP [T14I]
Second: GSKFRYSGRTQAQFRRASALIDRP [T14F]
The protein stability index of the first is lower: 2.69 for the first, 2.8 for the second.

Compared with GSKFRYSGRTQAQRRRASALIDRP [T14R], GSKFRYSGRTQAQARRASALIDRP [T14A] is lower in protein stability index: 3.44 for the first, 3.25 for the second.

First: GSKFRYSGRTQAQHRRASALIDRP [T14H]
Second: GSKFRYSGRTQAQPRRASALIDRP [T14P]
The protein stability index of the first is higher: 2.77 for the first, 2.62 for the second.

First: GSKFRYSGRTQAQNRRASALIDRP [T14N]
Second: GSKFRYSGRSQAQTRRASALIDRP [T10S]
The protein stability index of the first is higher: 3.72 for the first, 2.83 for the second.

First: GSKFRYSGRYQAQTRRASALIDRP [T10Y]
Second: GSKFRYSGRWQAQTRRASALIDRP [T10W]
The protein stability index of the first is higher: 2.39 for the first, 1.82 for the second.

Compared with GSKFRYSGRRQAQTRRASALIDRP [T10R], GSKFRYSGRVQAQTRRASALIDRP [T10V] is lower in protein stability index: 3.62 for the first, 2.84 for the second.

First: GSKFRYSGRTQPQTRRASALIDRP [A12P]
Second: GSKFRYSGRTQRQTRRASALIDRP [A12R]
The protein stability index of the first is lower: 3.17 for the first, 3.42 for the second.

Going from GSKFRYSGRTQGQTRRASALIDRP [A12G] to GSKFRYSGRTQMQTRRASALIDRP [A12M], the protein stability index falls from 3.11 to 2.73.

Compared with GSKFRYSGRTQDQTRRASALIDRP [A12D], GSKFRYSGRTQTQTRRASALIDRP [A12T] is lower in protein stability index: 3.37 for the first, 2.93 for the second.

First: GSKFRYSGRTQFQTRRASALIDRP [A12F]
Second: GSKFRYSGRTQCQTRRASALIDRP [A12C]
The protein stability index of the first is lower: 2.04 for the first, 3.32 for the second.

Compared with GSKFRYSGRTQWQTRRASALIDRP [A12W], GSKFRYSGRTQIQTRRASALIDRP [A12I] is higher in protein stability index: 2.25 for the first, 3.07 for the second.

First: GSKFRYSGRTQQQTRRASALIDRP [A12Q]
Second: GSKFRYSGRTQEQTRRASALIDRP [A12E]
The protein stability index of the first is lower: 3.06 for the first, 3.2 for the second.

Going from GSKFRYSGRTQKQTRRASALIDRP [A12K] to GSKFRYSGRTQYQTRRASALIDRP [A12Y], the protein stability index falls from 3.15 to 2.89.

Compared with GSKFRYSGRTQHQTRRASALIDRP [A12H], GSKFRYSGRTQLQTRRASALIDRP [A12L] is higher in protein stability index: 2.82 for the first, 3.38 for the second.

Compared with GSKFRYSGRTQNQTRRASALIDRP [A12N], GSKFRYSGRTQVQTRRASALIDRP [A12V] is lower in protein stability index: 3.08 for the first, 1.93 for the second.

Going from GSKFRYSGRTQSQTRRASALIDRP [A12S] to GSKFRYSGRTQAMTRRASALIDRP [Q13M], the protein stability index falls from 3.41 to 2.47.

Going from GSKFRYSGRTQAYTRRASALIDRP [Q13Y] to GSKFRYSGRTQAWTRRASALIDRP [Q13W], the protein stability index falls from 2.46 to 1.97.

Going from GSKFRYSGRTQAETRRASALIDRP [Q13E] to GSKFRYSGRTQAITRRASALIDRP [Q13I], the protein stability index falls from 3.27 to 2.9.

First: GSKFRYSGRTQAPTRRASALIDRP [Q13P]
Second: GSKFRYSGRTQAVTRRASALIDRP [Q13V]
The protein stability index of the first is lower: 2.69 for the first, 3.53 for the second.

Going from GSKFRYSGRTQADTRRASALIDRP [Q13D] to GSKFRYSGRTQAHTRRASALIDRP [Q13H], the protein stability index falls from 3.08 to 2.65.

First: GSKFRYSGRTQANTRRASALIDRP [Q13N]
Second: GSKFRYSGRTQARTRRASALIDRP [Q13R]
The protein stability index of the first is higher: 3.39 for the first, 3.25 for the second.

Compared with GSKFRYSGRTQATTRRASALIDRP [Q13T], GSKFRYSGRTQASTRRASALIDRP [Q13S] is higher in protein stability index: 2.73 for the first, 3.27 for the second.

Going from GSKFRYSGRTQAFTRRASALIDRP [Q13F] to GSKFRYSGRTQAKTRRASALIDRP [Q13K], the protein stability index rises from 2.69 to 3.19.

Going from GSKFRYSGRTQACTRRASALIDRP [Q13C] to GSKFRYSGRTQAGTRRASALIDRP [Q13G], the protein stability index rises from 2.98 to 3.49.

First: GSKFRYSGRTQALTRRASALIDRP [Q13L]
Second: GSKFRYSGRTQAATRRASALIDRP [Q13A]
The protein stability index of the first is higher: 2.91 for the first, 2.84 for the second.
